From the supplement of paper PMC10567573

B1: TIA1 (parent)
chain: TYECRCIGEEKEMWNFGEKYARF
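Further: lentivirally expressed fusions sorted by FACS into six bins by GFP to DsRed ratio, PSI derived from sequencing read proportions per bin multiplied by bin number.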

Variants of: B1
Test: protein stability index of a GFP-peptide fusion (GPS, HEK-293T) (PSI 1-6); higher = more stable
Settings: c terminus: native
TYECRCIGEETEMWNFGEKYARF showed a protein stability index of 3.28. In the case of TYECRCIGEEYEMWNFGEKYARF, the protein stability index is reported as 2.17. TYECRCIGEEIEMWNFGEKYARF showed a protein stability index of 1.3. In the case of TYECRCIGEEREMWNFGEKYARF, the protein stability index is reported as 1.57. Work on TYECRCIGEEWEMWNFGEKYARF yielded a protein stability index of 1.83. With TYECRCIGEEVEMWNFGEKYARF the protein stability index was 2.57. In the case of TYECRCIGEECEMWNFGEKYARF, the protein stability index is reported as 3.31. Variant TYECRCIGEEEEMWNFGEKYARF has a protein stability index of 2.54. With TYECRCIGEEPEMWNFGEKYARF the protein stability index was 2.02. Work on TYECRCIGEESEMWNFGEKYARF yielded a protein stability index of 1.98. In the case of TYECRCIGEEGEMWNFGEKYARF, the protein stability index is reported as 2.62. For TYECRCIGEEQEMWNFGEKYARF, the protein stability index was 1.84. TYECRCIGEEHEMWNFGEKYARF showed a protein stability index of 1.78. Variant TYECRCIGEENEMWNFGEKYARF has a protein stability index of 2.69. TYECRCIGEEDEMWNFGEKYARF showed a protein stability index of 2.38. For TYECRCIGEEFEMWNFGEKYARF, the protein stability index was 1.53. With TYECRCIGEEMEMWNFGEKYARF the protein stability index was 1.88. TYECRCIGEEAEMWNFGEKYARF gave a protein stability index of 3.42. With TYECRCIGEELEMWNFGEKYARF the protein stability index was 1.5. TYECRCIGEEKEMWFFGEKYARF showed a protein stability index of 2.46. TYECRCIGEEKEMWPFGEKYARF showed a protein stability index of 2.25. With TYECRCIGEEKEMWSFGEKYARF the protein stability index was 2.13. Variant TYECRCIGEEKEMWMFGEKYARF has a protein stability index of 1.43. TYECRCIGEEKEMWIFGEKYARF gave a protein stability index of 2.02. Work on TYECRCIGEEKEMWWFGEKYARF yielded a protein stability index of 2.77. Work on TYECRCIGEEKEMWGFGEKYARF yielded a protein stability index of 2. TYECRCIGEEKEMWVFGEKYARF showed a protein stability index of 2.3. With TYECRCIGEEKEMWEFGEKYARF the protein stability index was 2.37. In the case of TYECRCIGEEKEMWHFGEKYARF, the protein stability index is reported as 2.33. In the case of TYECRCIGEEKEMWLFGEKYARF, the protein stability index is reported as 2.37. Work on TYECRCIGEEKEMWDFGEKYARF yielded a protein stability index of 2.04. TYECRCIGEEKEMWQFGEKYARF gave a protein stability index of 1.42. TYECRCIGEEKEMWKFGEKYARF gave a protein stability index of 1.86. TYECRCIGEEKEMWTFGEKYARF gave a protein stability index of 1.92. With TYECRCIGEEKEMWCFGEKYARF the protein stability index was 1.96. For TYECRCIGEEKEMWYFGEKYARF, the protein stability index was 1.56. In the case of TYECRCIGEEKEMWNFLEKYARF, the protein stability index is reported as 2.35. TYECRCIGEEKEMWNFQEKYARF gave a protein stability index of 2.1. Work on TYECRCIGEEKEMWNFCEKYARF yielded a protein stability index of 1.75. Variant TYECRCIGEEKEMWNFFEKYARF has a protein stability index of 1.81. With TYECRCIGEEKEMWNFTEKYARF the protein stability index was 2.89. TYECRCIGEEKEMWNFNEKYARF showed a protein stability index of 3.29. In the case of TYECRCIGEEKEMWNFVEKYARF, the protein stability index is reported as 2.03. In the case of TYECRCIGEEKEMWNFYEKYARF, the protein stability index is reported as 1.7. TYECRCIGEEKEMWNFMEKYARF gave a protein stability index of 1.86. For TYECRCIGEEKEMWNFAEKYARF, the protein stability index was 2.27. In the case of TYECRCIGEEKEMWNFHEKYARF, the protein stability index is reported as 2. TYECRCIGEEKEMWNFIEKYARF showed a protein stability index of 1.16. With TYECRCIGEEKEMWNFEEKYARF the protein stability index was 2.16. For TYECRCIGEEKEMWNFREKYARF, the protein stability index was 2.1. Work on TYECRCIGEEKEMWNFSEKYARF yielded a protein stability index of 1.72. TYECRCIGEEKEMWNFWEKYARF showed a protein stability index of 2.2. TYECRCIGEEKEMWNFPEKYARF showed a protein stability index of 2.15. TYECRCIGEEKEMWNFDEKYARF showed a protein stability index of 3.11. TYECRCIGEEKEMWNFKEKYARF showed a protein stability index of 1.98. TYECRCIGEEKEMWNIGEKYARF gave a protein stability index of 1.57. Work on TYECRCIGEEKEMWNKGEKYARF yielded a protein stability index of 2.44. In the case of TYECRCIGEEKEMWNPGEKYARF, the protein stability index is reported as 1.91. TYECRCIGEEKEMWNLGEKYARF gave a protein stability index of 1.74. Variant TYECRCIGEEKEMWNCGEKYARF has a protein stability index of 2.42. TYECRCIGEEKEMWNDGEKYARF gave a protein stability index of 2.78. In the case of TYECRCIGEEKEMWNSGEKYARF, the protein stability index is reported as 2.66. TYECRCIGEEKEMWNYGEKYARF showed a protein stability index of 2.2. For TYECRCIGEEKEMWNWGEKYARF, the protein stability index was 1.77. With TYECRCIGEEKEMWNEGEKYARF the protein stability index was 2.9. TYECRCIGEEKEMWNRGEKYARF gave a protein stability index of 2.14. With TYECRCIGEEKEMWNGGEKYARF the protein stability index was 2.29. With TYECRCIGEEKEMWNTGEKYARF the protein stability index was 3. TYECRCIGEEKEMWNHGEKYARF showed a protein stability index of 2.26. In the case of TYECRCIGEEKEMWNVGEKYARF, the protein stability index is reported as 2.45. Work on TYECRCIGEEKEMWNMGEKYARF yielded a protein stability index of 3. Work on TYECRCIGEEKEMWNAGEKYARF yielded a protein stability index of 2.43. In the case of TYECRCIGEEKEMWNNGEKYARF, the protein stability index is reported as 1.85. TYECRCIGEEKEMWNFGEKFARF showed a protein stability index of 2.86. TYECRCIGEEKEMWNFGEKDARF showed a protein stability index of 3.16. TYECRCIGEEKEMWNFGEKEARF gave a protein stability index of 3.6. TYECRCIGEEKEMWNFGEKCARF showed a protein stability index of 1.81. Work on TYECRCIGEEKEMWNFGEKHARF yielded a protein stability index of 3.71. For TYECRCIGEEKEMWNFGEKAARF, the protein stability index was 2.58. TYECRCIGEEKEMWNFGEKGARF gave a protein stability index of 3.89. With TYECRCIGEEKEVWNFGEKYARF the protein stability index was 2.03. TYECRCIGEEKENWNFGEKYARF gave a protein stability index of 2.31. For TYECRCIGEEKESWNFGEKYARF, the protein stability index was 1.98. For TYECRCIGEEKERWNFGEKYARF, the protein stability index was 2.11. With TYECRCIGEEKEWWNFGEKYARF the protein stability index was 3.09. In the case of TYECRCIGEEKEPWNFGEKYARF, the protein stability index is reported as 2.19. TYECRCIGEEKEHWNFGEKYARF showed a protein stability index of 2.24. For TYECRCIGEEKEIWNFGEKYARF, the protein stability index was 2.07. Work on TYECRCIGEEKEQWNFGEKYARF yielded a protein stability index of 1.71. Work on TYECRCIGEEKETWNFGEKYARF yielded a protein stability index of 2.18. Work on TYECRCIGEEKEYWNFGEKYARF yielded a protein stability index of 1.56. In the case of TYECRCIGEEKEDWNFGEKYARF, the protein stability index is reported as 2.19. With TYECRCIGEEKECWNFGEKYARF the protein stability index was 2.14. Variant TYECRCIGEEKEAWNFGEKYARF has a protein stability index of 1.74. For TYECRCIGEEKEGWNFGEKYARF, the protein stability index was 2.61. TYECRCIGEEKEFWNFGEKYARF showed a protein stability index of 1.23. In the case of TYECRCIGEEKELWNFGEKYARF, the protein stability index is reported as 2.48.
